Results reported in the supplement of paper PMC10126150.
± gives the standard deviation of the averaged measurements.

Test system: ATP
Experiment: switch fluorescence ratio, 500 uM ATP over buffer (Cy3 cluster intensity, sum of 5 cycles each) (fold (ratio)); higher = stronger signal-on switching upon ATP binding; sequences stand for … in TCGTCGGCAGCGTCAGATGTGTATAAGAGACAGTTTTTTTTTTTTTTTTTTTTTTTTT…TC
Settings: aptamer strand: ATP DNA aptamer (quencher-CACCTGGGGGAGTATTGCGGAGGAAGG + anchor), 100 nM annealed; ATP concentration: 500 uM
Procedure, shortened: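 Clusters carrying Cy3-labelled switching strands on a modified Illumina MiSeq flow-cell were annealed to 100 nM quencher-labelled ATP aptamer and imaged in selection buffer. They were imaged again after 15 min with 500 uM ATP at 22 °C, over five buffer/ATP cycles with NaOH stripping and re-annealing in between. For each cluster, the fluorescence ratio is the summed Cy3 intensity of the target cycles divided by that of the buffer cycles, averaged per switch-domain sequence. Clusters outside 100-1000 RFU were left out.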
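Note: ATP exposure 15 min at 22 °C before imaging.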

Sequence | switch fluorescence ratio
TGTGCTATTT | 1.09 ± 0.17
GGGTGTACTT | 0.991 ± 0.023
GTTGATGTAG | 0.984 ± 0.028
GATACATAAA | 1.036 ± 0.0092
TTTTAGTTCT | 1.25 ± 0.42
GCAGTTTTGG | 0.992 ± 0.015
CTGGCTAGGT | 0.988 ± 0.057
CGAGCTGGTT | 0.991 ± 0.0027
ACTGAGTTTG | 1 ± 0.016
TGGGAGTTAG | 0.943 ± 0.03
GGAGGGGAAG | 1.07 ± 0.14
ATTTTTTTGC | 1.03 ± 0.029
TGGTACGGTC | 0.927 ± 0.041
ACGGAAGGGT | 1.04 ± 0.043
CAAATGGGAC | 1.09 ± 0.061
AAGGCTGCGA | 1.018 ± 0.0076
CGGAGCGACG | 1.03 ± 0.015
CAGATCAAGT | 1.016 ± 0.0034
GAGGGGTCCG | 1 ± 0.11
TTAGTGATAC | 2.49 ± 0.42
TAAAGGAAGT | 0.983 ± 0.04
GGTTATAGTC | 0.966 ± 0.02
ACGAAGGATA | 1.04 ± 0.014

Sequence | switch fluorescence ratio
TGTGTGTGGG | 1.03 ± 0.012
GAGGGGTATT | 0.986 ± 0.016
GCTGTAAGGC | 1.01 ± 0.039
TTATAATATG | 0.9846 ± 0.0035
TTTTCTTTTT | 1.06 ± 0.14
GGATTTATTG | 1.02 ± 0.022
AATGATATGA | 1.02 ± 0.05
TTCGTTAAGC | 1.07 ± 0.1
ATAAATGGGT | 0.9945 ± 0.0025
AAAGAAAGGT | 1.02 ± 0.024
GGTACTGAGC | 1.03 ± 0.061
TTTAAGGATT | 1.21 ± 0.33
GTGGATTTTT | 0.991 ± 0.015
GGTTTAAGAT | 1.0263 ± 0.00079
GTTGGTTGTG | 0.981 ± 0.0053
AAGGAAACGT | 1.04 ± 0.039
GTTTAGGCCC | 1 ± 0.041
GCAGCAAAAG | 1.029 ± 0.0029
CGGAAGGGGG | 1 ± 0.048
ATGAAGTAAT | 1 ± 0.023
TGTAAGTATT | 1.02 ± 0.018
TGGACGAGAG | 1.01 ± 0.019
ATGGGCGTAT | 1.04 ± 0.017

Sequence | switch fluorescence ratio
TTTTGTTTCA | 1 ± 0.022
TAATAGGGGC | 0.991 ± 0.05
GTGGGGACGG | 0.977 ± 0.053
TTTTAGAAGG | 0.9797 ± 0.0062
ATAAGCATGT | 1.02 ± 0.034
AGGCGTAAGG | 1.03 ± 0.015
TGAACTGTTC | 1.04 ± 0.069
ATGGTTATGC | 1.03 ± 0.051
CGGGTCGCTT | 0.9738 ± 0.004
ATGATTATGA | 1.04 ± 0.029
TGGTGAATTT | 1.016 ± 0.0067
TAGCGGGGTT | 0.9757 ± 0.0054
TTTACGGCTT | 1.05 ± 0.078
AAATTGGGCT | 1.03 ± 0.026
TTGGGGCCGG | 1.003 ± 0.0095
ATAAAGGGTT | 0.9936 ± 0.009
TGGATGTCAT | 1.07 ± 0.059
ATGGGCATGG | 1.04 ± 0.072
TAACAATTGT | 1.12 ± 0.18
CGCCTGGGGT | 1.64 ± 0.92
AGGATGATGC | 0.979 ± 0.026
TTTGTTAAGC | 0.973 ± 0.061
TTTCGTATAC | 2.1 ± 0.041

Sequence | switch fluorescence ratio
GTTTGTATTT | 1 ± 0.017
GCTAGTATAA | 0.987 ± 0.027
GCTTTTTTAC | 1.38 ± 0.32
GCTTAATGT | 1 ± 0.083
GGTAAGATCG | 0.9785 ± 0.0077
GCTATTCGAC | 1.16 ± 0.022
GTCATGAGAT | 0.9987 ± 0.0047
TTGAAAATGT | 0.96 ± 0.0076
TGTATATTTT | 0.98 ± 0.021
GGGAGAAAAG | 0.984 ± 0.014
TAAGAATTCG | 1.04 ± 0.056
TAAGGGGGT | 1 ± 0.031
AGCAAAGTGT | 1.02 ± 0.071
TTTTTATCTG | 0.9654 ± 0.002
GGGCATGGAG | 0.992 ± 0.02
AAACATGGTG | 1.03 ± 0.022
AAGTTTGTGT | 1.02 ± 0.0045
CTCGTTTTGA | 0.975 ± 0.023
CAAATTTAAG | 0.982 ± 0.028
GTGGGTCGTT | 1 ± 0.031
TGTCCATGGG | 1.013 ± 0.0047
ACACACGGTC | 1.34 ± 0.1
CTGTTTTACT | 1.03 ± 0.042

Sequence | switch fluorescence ratio
GTGGGGTCAA | 0.9985 ± 0.0085
ATGATGTGGG | 1.011 ± 0.0087
GAATTGTACC | 1.03 ± 0.028
GATGAATTGG | 0.975 ± 0.012
TGGGTTCTGA | 0.98 ± 0.011
TATGAATTGG | 1 ± 0.018
ATTGAAAAAG | 1.01 ± 0.025
TAGCGCATGG | 1.08 ± 0.046
CCGTTATTCT | 1.35 ± 0.27
TAATATGGAG | 0.99 ± 0.034
GCTCTATGTG | 1.01 ± 0.018
CGGTTCTGTG | 1 ± 0.012
GATTGTAGGT | 1 ± 0.015
TACGAAAAGA | 1.04 ± 0.052
AATCGGTTAG | 1 ± 0.03
GGCAGAGATC | 1.06 ± 0.077
TCGAAAACAG | 0.961 ± 0.0078
TCGTCTTATA | 0.991 ± 0.014
CAGGCTATTT | 1.03 ± 0.049
TTAGGGGAGC | 0.976 ± 0.021
AGTCTAGTGG | 0.985 ± 0.027
ATGGGTCCTG | 0.979 ± 0.048
GATTGGATCG | 0.9904 ± 0.0051

Sequence | switch fluorescence ratio
CATAGTTCTG | 0.981 ± 0.028
TGGGCCCATT | 1.02 ± 0.076
CATGGGGTTG | 0.978 ± 0.02
TAGGTCTCAG | 1.029 ± 0.0085
GAGTGCATGG | 1 ± 0.012
ATGCCGGTGT | 0.996 ± 0.057
ATGGGGTT | 0.992 ± 0.0053
CATTACGTGC | 0.996 ± 0.016
TCTTGTAAGT | 0.992 ± 0.023
TGTGTATCGG | 0.958 ± 0.034
GCCTTCAATA | 1.0946 ± 0.00028
AACGGGGGGT | 0.997 ± 0.033
AAGAATTGCG | 0.97 ± 0.033
TGACGGGAAT | 1.01 ± 0.013
GGTATTGTGT | 1.02 ± 0.028
AATGTGTCCC | 0.991 ± 0.041
ATCACAATCA | 1.02 ± 0.023
GTAAGATATT | 0.9994 ± 0.0098
ATTGAAAAAT | 0.983 ± 0.012
ACCTACGAGT | 1.37 ± 0.044
GGGGGGGCTT | 0.998 ± 0.031
GCGATATAGT | 1.03 ± 0.074
TCGAGATAGA | 1.1 ± 0.11

Sequence | switch fluorescence ratio
ATTTTAATAG | 0.9909 ± 0.0056
ATTTATTTGC | 1.01 ± 0.022
ATAGAGGGGT | 1.01 ± 0.023
TGCGGGTGGT | 1.035 ± 0.0014
GCTACAGGGG | 1.18 ± 0.25
GTTCAAAGCG | 0.999 ± 0.029
TAGAGGGGAA | 1.024 ± 0.0034
GTTAATTTTT | 1.01 ± 0.043
AACGAGTGAG | 1.01 ± 0.023
CCAATTGCAT | 1.12 ± 0.021
TGATTTTGTC | 0.9932 ± 0.0028
CAGGCAGTAA | 1.18 ± 0.073
GTACTTGGCT | 1.016 ± 0.0023
CGGGATGATC | 0.9966 ± 0.0069
GATAAAGAAG | 0.9999 ± 0.0071
TGTTGTATGT | 0.994 ± 0.015
ATCGGGGCAT | 0.98 ± 0.059
TTTGTGGTCT | 0.991 ± 0.032
ATTCGTTTTA | 0.975 ± 0.013
